The target of data set [1] is T1, ThAOS (Thermus thermophilus, UniProt Q5SHZ8).
T1 construct: gene TTHA1582; recombinant in E. coli BL21(DE3), pET28a, TEV-cleavable N-terminal His6 tag; homodimer; active site includes V79 of the other monomer
As to the kind of experiment: UV-vis titration of PLP spectrum. Format: binding. The note with it: 0-16 mM; external aldimine and some quinonoid formation.
Target sequence in this assay (Q5SHZ8 whole entry): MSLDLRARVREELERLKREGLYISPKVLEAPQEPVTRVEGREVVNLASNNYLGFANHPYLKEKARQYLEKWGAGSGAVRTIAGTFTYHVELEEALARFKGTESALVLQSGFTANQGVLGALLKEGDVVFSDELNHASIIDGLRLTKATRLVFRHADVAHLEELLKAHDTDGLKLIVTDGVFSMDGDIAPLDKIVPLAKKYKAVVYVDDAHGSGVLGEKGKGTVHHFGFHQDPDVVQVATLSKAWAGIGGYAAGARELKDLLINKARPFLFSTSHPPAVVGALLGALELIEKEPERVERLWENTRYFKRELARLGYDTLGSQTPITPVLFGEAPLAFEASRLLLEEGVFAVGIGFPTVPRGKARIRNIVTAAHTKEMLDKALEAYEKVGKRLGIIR

The target of data set [2] is T1, ThAOS. As to the kind of experiment: X-ray crystal structure (crystal soak), […] Å; UV-vis. Format: binding. The note with it: covalent PLP:L-Pen thiazolidine adduct; carboxylate chelated by Arg366.
Data set [3] concerns the target T1, ThAOS. As to the kind of experiment: UV-vis spectroscopy of purified holoenzyme. Format: binding. Conditions: covalent; internal aldimine.
Target sequence in this assay (Q5SHZ8 whole entry): as above
Data set [4] concerns the target T1, ThAOS. As to the kind of experiment: DTNB assay of CoASH release. Format: biochemical. The note with it: 16 mM L-Aba; 1 mM acetyl-CoA; HEPES pH 7.5; 50 °C.
Target sequence in this assay (Q5SHZ8 whole entry): as above
Substrate in data set [5]: C[C@H](N)C(=O)O
As to the kind of experiment: purified protein. The note with it: acetyl-CoA co-substrate, HEPES pH 7.5, 50 °C.

Substrate in data set [6]: N[C@@H](CO)C(=O)O
As to the kind of experiment: purified protein. Conditions: acetyl-CoA co-substrate, HEPES pH 7.5, 50 °C.

Substrate in data set [7]: CC[C@H](N)C(=O)O
As to the kind of experiment: DTNB assay of CoASH release. Format: biochemical, Thermus thermophilus. Conditions: acetyl-CoA co-substrate, HEPES pH 7.5, 50 °C. From the text: (§1) DTNB assay of CoASH release on ThAOS | catalytic efficiency (kcat/KM) for all four original amino acid substrates was improved substantially

Substrate in data set [8]: NCC(=O)O
As to the kind of experiment: DTNB assay of CoASH release. Format: biochemical, Thermus thermophilus. Conditions: acetyl-CoA co-substrate, HEPES pH 7.5, 50 °C.
Source text: as §1

Substrate in data set [9]: CC[C@H](N)C(=O)O
As to the kind of experiment: DTNB assay of CoASH release. Format: biochemical, Thermus thermophilus. Conditions: acetyl-CoA co-substrate, HEPES pH 7.5, 50 °C. This is another data set of the same source.

Substrate in data set [10]: NCC(=O)O
As to the kind of experiment: DTNB assay of CoASH release. Conditions: acetyl-CoA co-substrate, HEPES pH 7.5, 50 °C. Format: biochemical, Thermus thermophilus. The source holds these as a separate data set.

Positions count from the first letter of the chain named. Names may count otherwise.

Broadly, the Km is the substrate concentration at which the rate is half of its maximum. As a reminder, the kcat is the number of substrate molecules converted per active site and unit of time at saturation.

As to `C[C@H](N)C(=O)O` [L-Ala], the “UV-vis titration of PLP spectrum” value in [1] was “L-Ala binding leads to a small amount of PLP: L-Ala quinonoid formation”.

Turning to `CC(C)(S)[C@H](N)C(=O)O` [L-Pen, L-penicillamine], the “X-ray crystal structure (crystal soak), 1.5 Å; UV-vis” value in data set [2] is “The structure of ThAOS V79A PLP:L-Pen complex (PDB: 8S1Y)”.

For the molecule `Cc1ncc(COP(=O)(O)O)c(C=O)c1O` [PLP, pyridoxal 5’-phosphate], the “UV-vis spectroscopy of purified holoenzyme” value in [3] is listed as “corresponding to the tautomeric forms of the PLP-bound internal aldimines”.

As for `CC[C@H](N)C(=O)O` [L-Aba], the “DTNB assay of CoASH release” value in data set [4] is “original set of four amino acid substrates (L-Aba, L-Ala, Gly and L-Ser)”.

B1: ThAOS (Thermus thermophilus HB8; V78A) (protein)
chain: MSLDLRARVREELERLKREGLYISPKVLEAPQEPVTRVEGREVVNLASNNYLGFANHPYLKEKARQYLEKWGAGSGAARTIAGTFTYHVELEEALARFKGTESALVLQSGFTANQGVLGALLKEGDVVFSDELNHASIIDGLRLTKATRLVFRHADVAHLEELLKAHDTDGLKLIVTDGVFSMDGDIAPLDKIVPLAKKYKAVVYVDDAHGSGVLGEKGKGTVHHFGFHQDPDVVQVATLSKAWAGIGGYAAGARELKDLLINKARPFLFSTSHPPAVVGALLGALELIEKEPERVERLWENTRYFKRELARLGYDTLGSQTPITPVLFGEAPLAFEASRLLLEEGVFAVGIGFPTVPRGKARIRNIVTAAHTKEMLDKALEAYEKVGKRLGIIR
notes: recombinant in E. coli BL21(DE3), pET28a, TEV-cleavable N-terminal His6 tag; homodimer; active site includes V79 of the other monomer
For the molecule B1, the Km in data set [5] is 1.59 ± 0.25 mM; in data set [6], 2.52 ± 0.30 mM; in [7], 3.12 ± 0.35 mM; in data set [8], 8.36 ± 1.73 mM. Besides, the kcat turned out to be 1.23 ± 0.05 s⁻¹ in data set [5], 3.81 ± 0.13 s⁻¹ in [6], 2.25 ± 0.08 s⁻¹ in [7] and 3.89 ± 0.32 s⁻¹ in [8].

B2: ThAOS (Thermus thermophilus HB8; V78G) (protein)
chain: B1 chain with A78G
notes: as for B1
For B2, the Km in data set [5] worked out at 2.46 ± 0.05 mM; in [6] it was 4.28 ± 0.96 mM; in data set [9] it was 0.83 ± 0.15 mM; in data set [10], 9.52 ± 1.91 mM. For the same molecule, the kcat in [5] worked out at 2.39 ± 0.15 s⁻¹; in data set [6] it was 5.74 ± 0.43 s⁻¹; in data set [9] it was 1.09 ± 0.04 s⁻¹; in data set [10], 5.12 ± 0.43 s⁻¹.
